Experiment: In vivo pharmacokinetic analysis
Parameters: species or system BALB/c mice
Details: 10 IU intravenous, mouse serum
Description: Six-week-old female BALB/c mice (Orient Company, Korea) were randomly assigned to different treatment groups (n=3) and intravenously injected with 10 IU of PASylated recombinant protein. Then, blood samples were taken from the eyes at the specified time (0-52 h) and left at 4° C. for 40 min. After centrifugation at 12,000 rpm for 20 min, the serum fraction was obtained and stored at −80° C. before further analysis. PASylated recombinant protein in serum was assessed using the ELISA method described above. The amount of serum recombinant protein was converted to enzyme activity.

B1: CRT3LP: PASylated L-ASNase fused with CRT-targeting CRT3 monobody at N-terminus and PAS200 tag plus His6 tag at C-terminus (protein)
chain: MASVSDVPRDLEVVAATPTSLLISWKLGFFKRYYRITYGETGGNSPVQEFTVPGSKSTATISGLKPGVDYTITVYAVTGQPMYGQPMYPISINYRTSGGGGSGGGGSEFLPNITILATGGTIAGGGDSATKSNYTAGKVGVENLVNAVPQLKDIANVKGEQVVNIGSQDMNDDVWLTLAKKINTDCDKTDGFVITHGTDTMEETAYFLDLTVKCDKPVVMVGAMRPSTSMSADGPFNLYNAVVTAADKASANRGVLVVMNDTVLDGRDVTKTNTTDVATFKSVNYGPLGYIHNGKIDYQRTPARKHTSDTPFDVSKLNELPKVGIVYNYANASDLPAKALVDAGYDGIVSAGVGNGNLYKTVFDTLATAAKNGTAVVRSSRVPTGATTQDVEVDDAKYGFVASGTLNPQKARVLLQLALTQTKDPQQIQQIFNQYGSSGGGGSGGGGSASPAAPAPASPAAPAPSAPAASPAAPAPASPAAPAPSAPAASPAAPAPASPAAPAPSAPAASPAAPAPASPAAPAPSAPAASPAAPAPASPAAPAPSAPAASPAAPAPASPAAPAPSAPAASPAAPAPASPAAPAPSAPAASPAAPAPASPAAPAPSAPAASPAAPAPASPAAPAPSAPAASPAAPAPASPAAPAPSAPAAGSHHHHHH
  half-life: 9.34 ± 0.91 h
